Test [1] addresses T1, human PVRIG on FlpinCHO-PVRIG cells (human, UniProt Q6DKI7 41-326).
T1 construct: whole, on cells
T1 sequence (looked up): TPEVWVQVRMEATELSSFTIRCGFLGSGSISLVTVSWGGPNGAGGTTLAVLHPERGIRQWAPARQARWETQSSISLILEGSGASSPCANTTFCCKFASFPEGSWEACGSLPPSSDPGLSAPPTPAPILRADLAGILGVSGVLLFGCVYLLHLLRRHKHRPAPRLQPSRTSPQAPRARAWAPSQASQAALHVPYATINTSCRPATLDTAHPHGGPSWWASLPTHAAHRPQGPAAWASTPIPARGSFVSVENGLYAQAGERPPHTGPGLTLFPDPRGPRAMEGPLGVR
Description: FACS, FlpinCHO-PVRIG cells; AUC of MFI curve relative to COM701-hIgG1. As to the method:
(§1) The Ham's F12 (Gibico, 21127-022) complete medium containing 10% FBS was then added to terminate the digestion and acquire cell suspension. After counting with a cell counter (Beckman Coulter, Vi-CELL), an appropriate amount of cell suspension was centrifuged at 350×g to remove the supernatant, washed twice with PBS, stained with Zombie violet (Biolegend, 423114) and incubated at room temperature for 20 minutes. After incubation, the cells were added with staining buffer (2% FBS+PBS) to stop staining, centrifuged at 350×g to remove the supernatant, washed twice and resuspended with staining buffer to a density of 2×10⁶ cells/mL. The cells were plated into a 96-well plate (50 μL of cell suspension per well) for further use. The antibodies were diluted from the highest concentration of 46 nM (two-fold concentration) with staining buffer by 3.3-fold serial dilution. The diluted antibodies were added to the well containing 50 μL of cell suspension. The plate was placed on a microplate shaker at 400 rpm for 1 minute to fully mix the antibodies and cells, and then incubated at 4° C. for 30 minutes. After the incubation, the cells were washed twice with staining buffer (200 μL per well) and centrifuged at 350×g for 5 minutes to discard the supernatant. The PE goat anti-human IgG Fc antibody (ebioscience, 12-4998-82) was diluted 250 times with staining buffer, added into the washed wells (100 μL per well), mixed well, and stained at 4° C. for 30 minutes. After staining, the cells were washed twice with staining buffer, finally resuspended with 200 μL staining buffer and analyzed by flow cytometry (BD, Canto II). The stronger the signal, the stronger the ability of the antibodies binds to PVRIG. An antibody binding curve was drawn with concentration of antibodies as the abscissa and the corresponding Mean Fluorescence Intensity (MFI) as the ordinate. The AUC value of the curve was calculated by using a Four Parameter Logistic Fit (GraphPadPrism9). The stronger the AUC value, the stronger the ability of the antibodies binds to FlpinCHO-PVRIG and FlpinCHO-cyno PVRIG. […] The binding activity of the antibodies was normalized to the positive control COM701-hIgG1 and SRF813-hIgG1.
(In general: Flow cytometry measures light scatter and fluorescence of single cells or particles in a stream.)

The target in test [2] is T1, human PVRIG on FlpinCHO-PVRIG cells. Description: FACS, FlpinCHO-PVRIG cells; AUC of MFI curve relative to SRF813-hIgG1. The protocol:
as §1

Test [3] concerns the target T2, human PVRIG-his (AcroBiosystems, Cat NO. PVG-H52H4) (human, UniProt Q6DKI7 41-171, limits assumed).
T2 construct: Bought reagent; also called human PVRIG protein
T2 sequence (looked up): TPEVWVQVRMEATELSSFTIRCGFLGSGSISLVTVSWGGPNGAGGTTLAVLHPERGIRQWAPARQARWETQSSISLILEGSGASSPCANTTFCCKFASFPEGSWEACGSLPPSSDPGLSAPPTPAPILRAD
Description: ELISA, coated human PVRIG-his; binding ELISA, Table 23. The protocol:
The ELISA plate was pre-coated with 100 μL/well of 0.5 μg/mL human PVRIG-his (AcroBiosystems, Cat NO. PVG-H52H4) or cynomolgus monkey PVRIG (Novoprotein, Cat NO. C09B). […] A HRP substrate, TMB (Thermo, Cat NO. 34029) was added into wells after washing the plate again for color development. After adding a termination solution to terminate the reaction, the absorbance value was read by a microplate reader (MD i3×). An antibody binding curve was drawn with concentration of antibodies as the abscissa and the corresponding OD value as the ordinate. The EC50 value was calculated by using a Four Parameter Logistic Fit (GraphPadPrism9). The smaller the EC50 value, the stronger the ability of the antibodies binds to human or cynomolgus monkey PVRIG. The positive control antibodies are COM701-hIgG1 (Patent No.:US20180244774A1), COM701-hIgG4 (patent No.: US20180244774A1) and SRF813-hIgG1 (Patent No.:US20200040081A1); and the negative control antibodies are anti-HA HcAb-hIgG1 (Chengdu NB Biolab, Cat NO. NBR022), anti-CD38 HcAb-hIgG1 (in-house) and anti-Fluorescein-hIgG1 (in house).
On the technique in general: ELISA stands for enzyme-linked immunosorbent assay.

The target in test [4] is T3, cynomolgus monkey PVRIG on FlpinCHO-cyno PVRIG cells (cynomolgus monkey, UniProt A0A2K5WVV8 41-322).
T3 construct: whole, on cells
T3 sequence: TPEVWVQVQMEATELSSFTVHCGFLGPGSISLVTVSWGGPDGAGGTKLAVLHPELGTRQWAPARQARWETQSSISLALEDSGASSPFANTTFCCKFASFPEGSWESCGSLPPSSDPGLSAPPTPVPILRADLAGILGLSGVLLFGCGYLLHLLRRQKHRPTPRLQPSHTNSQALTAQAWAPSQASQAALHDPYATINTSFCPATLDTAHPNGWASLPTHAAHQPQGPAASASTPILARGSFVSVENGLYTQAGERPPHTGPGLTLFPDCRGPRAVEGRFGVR
As to the kind of experiment: FACS, FlpinCHO-cyno PVRIG cells; AUC of MFI curve relative to SRF813-hIgG1. As to the method: as §1

Test [5] deals with T3, cynomolgus monkey PVRIG on …. Description: FACS, FlpinCHO-cyno PVRIG cells; AUC of MFI curve relative to COM701-hIgG1. As to the method:
as §1

In test [6] the target is T4, cynomolgus monkey PVRIG (Novoprotein, Cat NO. C09B) (cynomolgus monkey, UniProt A0A2K5WVV8 41-171).
T4 construct: Bought reagent; also called cynomolgus monkey PVRIG protein
T4 sequence: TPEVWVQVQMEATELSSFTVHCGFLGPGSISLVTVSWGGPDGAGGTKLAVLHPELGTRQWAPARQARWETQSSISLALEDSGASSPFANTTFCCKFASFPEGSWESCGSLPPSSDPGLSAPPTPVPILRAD
As to the kind of experiment: ELISA, coated cynomolgus monkey PVRIG.

B1: PVRIG-A11 (Fc fusion)
chain: QLQLVESGGGLVQPGGSLRLSCAASGFTDDYYAIGWFRQAPGKEREGVSCISGSGGSTNYEDSVKGRFAISRDNAKNMVYLQMNDLKPEDTAVYYCAADPFWSAPCTGHNDRYFDVWGQGTLVTVSS
notes: Alpaca VHH joined to human IgG1 Fc (VHH-hinge-CH2-CH3); not shown: human IgG1 hinge-CH2-CH3
By EC50 is commonly meant the concentration needed to bring the measured effect to its halfway point. For B1, the “% AUC to COM701-hIgG1” value in test [1] was found to be 117%; in test [5], 41.3%. Besides, the figures for the “% AUC to SRF813-hIgG1” value in test [2] and in test [4] were 143% and 48.6%, respectively. The figures for the concentration giving a half-maximal response (EC50) in test [3] and in test [6] were 121 pM and 28.9 pM, respectively.

For the origin of these results see patent publication US20240343803A1 (SHANDONG SIMCERE BIOPHARMACEUTICAL, published 2024).
